Laboratory results taken from paper PMC9360328, “Tenuous Transcriptional Threshold of Human Sex Determination. I. SRY and Swyer Syndrome at the Edge of Ambiguity”.

Key:
Assay in all cases: FRET titration; 15 C, 25 nM DNA; FRET titration: 10 mM potassium phosphate, 10 mM Tris-HCl, 140 mM KCl, 1 mM EDTA, 1 mM DTT, pH 8.4, 15 C, 25 nM DNA; PGE: 10 nM DNA, 20 nM protein, 0.5x TBE, 4
Conditions in all cases: protein: recombinant; label: 5'-6-FAM (hexanyl linker) on upper strand; 5'-TAMRA (hexanyl linker) on lower strand; blunt
[1] = molecular target: SRY HMG box Y72C (Y127C) (Homo sapiens, UniProt Q05066 56-141, Y127C)
[2] = molecular target: SRY HMG box Y72F (Y127F) (Homo sapiens, UniProt Q05066 56-141, Y127F)
[3] = molecular target: SRY HMG box Y72H (Y127H) (Homo sapiens, UniProt Q05066 56-141, Y127H)
Chain of SRY HMG box Y72H (Y127H) (Q05066 56-141 Y127H): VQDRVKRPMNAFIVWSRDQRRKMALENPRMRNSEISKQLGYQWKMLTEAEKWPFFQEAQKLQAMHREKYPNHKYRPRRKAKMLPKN

Chain of SRY HMG box Y72F (Y127F) (Q05066 56-141 Y127F): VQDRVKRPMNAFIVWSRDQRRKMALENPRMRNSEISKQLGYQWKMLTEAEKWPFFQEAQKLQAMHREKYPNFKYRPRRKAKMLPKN
Chain of SRY HMG box Y72C (Y127C) (Q05066 56-141 Y127C): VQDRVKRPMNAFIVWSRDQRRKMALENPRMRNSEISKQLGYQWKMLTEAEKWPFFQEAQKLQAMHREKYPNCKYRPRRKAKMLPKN

B1: 15-bp consensus SRY site, FRET-labeled (dsDNA)
DNA 1: TCGGTGATTGTTCAG
DNA 2: CTGAACAATCACCGA
Kd [1]: 21 ± 5 nM
Kd [2]: 12 ± 3 nM
Kd [3]: 19 ± 4 nM
